Measured values as given in US20060252692A1, “Inhibitors for use in hemostasis” (ZymoGenetics, Inc., priority 2002, published 2006).

Experiments:
[1] = tested on: RAW 264.7 (ATCC No. CRL-2278); test: Binding of zsig37 to RAW 264.7 monocyte/macrophage line; conditions: mouse monocyte/macrophage line
Excerpt: This could potentially result in zsig37 involvement in monocyte phagocytosis, microbial killing, and cellular cytotoxicity. Following the two days in culture, there are macrophages present in the culture and zsig37 may be binding preferentially to this subset of cells. Zsig37 also bound to a mouse monocyte/macrophage line, RAW 264.7 (ATCC No. CRL-2278), indicating macrophage specificity.

[2] = molecular target: T1, collagen type VI (Homo sapiens, UniProt P12109+P12110+P12111); test: Quantitative ELISA binding to collagen type VI; conditions: Zsig37-FITC 0.4 to 4 μg/ml, 10 μg collagen type VI
T1 construct: purchased Chemicon International; Temecula, Calif
T1 sequence (P12109 20-1028): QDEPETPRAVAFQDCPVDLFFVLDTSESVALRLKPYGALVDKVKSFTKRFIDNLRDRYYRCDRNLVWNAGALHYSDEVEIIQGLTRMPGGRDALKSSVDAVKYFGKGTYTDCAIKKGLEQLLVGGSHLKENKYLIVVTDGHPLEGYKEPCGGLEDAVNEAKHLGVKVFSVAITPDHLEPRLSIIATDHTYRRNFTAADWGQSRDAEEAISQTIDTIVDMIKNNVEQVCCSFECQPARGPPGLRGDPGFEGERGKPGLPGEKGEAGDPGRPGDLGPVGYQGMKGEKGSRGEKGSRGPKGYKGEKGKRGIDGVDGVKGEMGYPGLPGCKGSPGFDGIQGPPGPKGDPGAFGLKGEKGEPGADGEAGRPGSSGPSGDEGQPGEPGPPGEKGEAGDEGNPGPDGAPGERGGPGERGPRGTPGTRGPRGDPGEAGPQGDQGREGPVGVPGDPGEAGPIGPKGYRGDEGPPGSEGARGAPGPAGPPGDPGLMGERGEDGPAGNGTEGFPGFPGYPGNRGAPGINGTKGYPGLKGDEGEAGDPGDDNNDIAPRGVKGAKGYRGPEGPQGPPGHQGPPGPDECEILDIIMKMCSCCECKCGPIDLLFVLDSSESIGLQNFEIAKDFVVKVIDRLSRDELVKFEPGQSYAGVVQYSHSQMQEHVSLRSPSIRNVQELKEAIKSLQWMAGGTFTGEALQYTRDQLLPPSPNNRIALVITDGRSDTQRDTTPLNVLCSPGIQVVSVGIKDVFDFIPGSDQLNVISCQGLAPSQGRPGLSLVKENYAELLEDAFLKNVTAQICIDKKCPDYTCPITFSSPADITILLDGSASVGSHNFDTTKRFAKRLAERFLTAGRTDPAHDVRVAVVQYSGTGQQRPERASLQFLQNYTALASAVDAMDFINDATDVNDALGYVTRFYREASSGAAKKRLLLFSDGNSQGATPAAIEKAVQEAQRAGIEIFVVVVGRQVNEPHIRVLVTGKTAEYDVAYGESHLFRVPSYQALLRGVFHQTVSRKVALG
T1 sequence (P12110 21-1019): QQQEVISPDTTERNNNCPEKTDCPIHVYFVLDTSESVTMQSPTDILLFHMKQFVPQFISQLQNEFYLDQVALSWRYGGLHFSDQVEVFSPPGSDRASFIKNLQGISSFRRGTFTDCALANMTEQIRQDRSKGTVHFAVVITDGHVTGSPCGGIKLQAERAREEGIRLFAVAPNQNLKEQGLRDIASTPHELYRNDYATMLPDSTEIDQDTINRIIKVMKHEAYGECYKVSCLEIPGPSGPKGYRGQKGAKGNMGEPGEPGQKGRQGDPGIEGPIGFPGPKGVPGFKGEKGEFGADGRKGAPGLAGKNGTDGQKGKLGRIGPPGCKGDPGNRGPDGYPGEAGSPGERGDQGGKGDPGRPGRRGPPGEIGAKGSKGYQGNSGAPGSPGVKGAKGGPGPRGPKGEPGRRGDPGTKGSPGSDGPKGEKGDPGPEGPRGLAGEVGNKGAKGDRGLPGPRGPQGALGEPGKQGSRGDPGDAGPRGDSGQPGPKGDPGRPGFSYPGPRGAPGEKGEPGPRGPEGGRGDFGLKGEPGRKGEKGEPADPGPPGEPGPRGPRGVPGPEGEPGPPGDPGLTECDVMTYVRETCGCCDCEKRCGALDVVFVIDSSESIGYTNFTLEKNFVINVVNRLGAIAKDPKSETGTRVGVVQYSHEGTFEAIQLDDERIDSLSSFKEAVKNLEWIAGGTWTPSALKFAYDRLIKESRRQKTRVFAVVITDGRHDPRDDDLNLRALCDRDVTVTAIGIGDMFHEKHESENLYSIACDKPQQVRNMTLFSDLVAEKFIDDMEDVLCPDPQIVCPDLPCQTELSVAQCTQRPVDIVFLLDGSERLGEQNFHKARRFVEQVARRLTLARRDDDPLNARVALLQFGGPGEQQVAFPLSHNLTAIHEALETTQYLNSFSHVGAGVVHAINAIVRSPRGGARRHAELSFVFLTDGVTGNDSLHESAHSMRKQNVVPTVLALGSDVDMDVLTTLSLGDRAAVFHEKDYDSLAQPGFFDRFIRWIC
T1 sequence (P12111 26-3177): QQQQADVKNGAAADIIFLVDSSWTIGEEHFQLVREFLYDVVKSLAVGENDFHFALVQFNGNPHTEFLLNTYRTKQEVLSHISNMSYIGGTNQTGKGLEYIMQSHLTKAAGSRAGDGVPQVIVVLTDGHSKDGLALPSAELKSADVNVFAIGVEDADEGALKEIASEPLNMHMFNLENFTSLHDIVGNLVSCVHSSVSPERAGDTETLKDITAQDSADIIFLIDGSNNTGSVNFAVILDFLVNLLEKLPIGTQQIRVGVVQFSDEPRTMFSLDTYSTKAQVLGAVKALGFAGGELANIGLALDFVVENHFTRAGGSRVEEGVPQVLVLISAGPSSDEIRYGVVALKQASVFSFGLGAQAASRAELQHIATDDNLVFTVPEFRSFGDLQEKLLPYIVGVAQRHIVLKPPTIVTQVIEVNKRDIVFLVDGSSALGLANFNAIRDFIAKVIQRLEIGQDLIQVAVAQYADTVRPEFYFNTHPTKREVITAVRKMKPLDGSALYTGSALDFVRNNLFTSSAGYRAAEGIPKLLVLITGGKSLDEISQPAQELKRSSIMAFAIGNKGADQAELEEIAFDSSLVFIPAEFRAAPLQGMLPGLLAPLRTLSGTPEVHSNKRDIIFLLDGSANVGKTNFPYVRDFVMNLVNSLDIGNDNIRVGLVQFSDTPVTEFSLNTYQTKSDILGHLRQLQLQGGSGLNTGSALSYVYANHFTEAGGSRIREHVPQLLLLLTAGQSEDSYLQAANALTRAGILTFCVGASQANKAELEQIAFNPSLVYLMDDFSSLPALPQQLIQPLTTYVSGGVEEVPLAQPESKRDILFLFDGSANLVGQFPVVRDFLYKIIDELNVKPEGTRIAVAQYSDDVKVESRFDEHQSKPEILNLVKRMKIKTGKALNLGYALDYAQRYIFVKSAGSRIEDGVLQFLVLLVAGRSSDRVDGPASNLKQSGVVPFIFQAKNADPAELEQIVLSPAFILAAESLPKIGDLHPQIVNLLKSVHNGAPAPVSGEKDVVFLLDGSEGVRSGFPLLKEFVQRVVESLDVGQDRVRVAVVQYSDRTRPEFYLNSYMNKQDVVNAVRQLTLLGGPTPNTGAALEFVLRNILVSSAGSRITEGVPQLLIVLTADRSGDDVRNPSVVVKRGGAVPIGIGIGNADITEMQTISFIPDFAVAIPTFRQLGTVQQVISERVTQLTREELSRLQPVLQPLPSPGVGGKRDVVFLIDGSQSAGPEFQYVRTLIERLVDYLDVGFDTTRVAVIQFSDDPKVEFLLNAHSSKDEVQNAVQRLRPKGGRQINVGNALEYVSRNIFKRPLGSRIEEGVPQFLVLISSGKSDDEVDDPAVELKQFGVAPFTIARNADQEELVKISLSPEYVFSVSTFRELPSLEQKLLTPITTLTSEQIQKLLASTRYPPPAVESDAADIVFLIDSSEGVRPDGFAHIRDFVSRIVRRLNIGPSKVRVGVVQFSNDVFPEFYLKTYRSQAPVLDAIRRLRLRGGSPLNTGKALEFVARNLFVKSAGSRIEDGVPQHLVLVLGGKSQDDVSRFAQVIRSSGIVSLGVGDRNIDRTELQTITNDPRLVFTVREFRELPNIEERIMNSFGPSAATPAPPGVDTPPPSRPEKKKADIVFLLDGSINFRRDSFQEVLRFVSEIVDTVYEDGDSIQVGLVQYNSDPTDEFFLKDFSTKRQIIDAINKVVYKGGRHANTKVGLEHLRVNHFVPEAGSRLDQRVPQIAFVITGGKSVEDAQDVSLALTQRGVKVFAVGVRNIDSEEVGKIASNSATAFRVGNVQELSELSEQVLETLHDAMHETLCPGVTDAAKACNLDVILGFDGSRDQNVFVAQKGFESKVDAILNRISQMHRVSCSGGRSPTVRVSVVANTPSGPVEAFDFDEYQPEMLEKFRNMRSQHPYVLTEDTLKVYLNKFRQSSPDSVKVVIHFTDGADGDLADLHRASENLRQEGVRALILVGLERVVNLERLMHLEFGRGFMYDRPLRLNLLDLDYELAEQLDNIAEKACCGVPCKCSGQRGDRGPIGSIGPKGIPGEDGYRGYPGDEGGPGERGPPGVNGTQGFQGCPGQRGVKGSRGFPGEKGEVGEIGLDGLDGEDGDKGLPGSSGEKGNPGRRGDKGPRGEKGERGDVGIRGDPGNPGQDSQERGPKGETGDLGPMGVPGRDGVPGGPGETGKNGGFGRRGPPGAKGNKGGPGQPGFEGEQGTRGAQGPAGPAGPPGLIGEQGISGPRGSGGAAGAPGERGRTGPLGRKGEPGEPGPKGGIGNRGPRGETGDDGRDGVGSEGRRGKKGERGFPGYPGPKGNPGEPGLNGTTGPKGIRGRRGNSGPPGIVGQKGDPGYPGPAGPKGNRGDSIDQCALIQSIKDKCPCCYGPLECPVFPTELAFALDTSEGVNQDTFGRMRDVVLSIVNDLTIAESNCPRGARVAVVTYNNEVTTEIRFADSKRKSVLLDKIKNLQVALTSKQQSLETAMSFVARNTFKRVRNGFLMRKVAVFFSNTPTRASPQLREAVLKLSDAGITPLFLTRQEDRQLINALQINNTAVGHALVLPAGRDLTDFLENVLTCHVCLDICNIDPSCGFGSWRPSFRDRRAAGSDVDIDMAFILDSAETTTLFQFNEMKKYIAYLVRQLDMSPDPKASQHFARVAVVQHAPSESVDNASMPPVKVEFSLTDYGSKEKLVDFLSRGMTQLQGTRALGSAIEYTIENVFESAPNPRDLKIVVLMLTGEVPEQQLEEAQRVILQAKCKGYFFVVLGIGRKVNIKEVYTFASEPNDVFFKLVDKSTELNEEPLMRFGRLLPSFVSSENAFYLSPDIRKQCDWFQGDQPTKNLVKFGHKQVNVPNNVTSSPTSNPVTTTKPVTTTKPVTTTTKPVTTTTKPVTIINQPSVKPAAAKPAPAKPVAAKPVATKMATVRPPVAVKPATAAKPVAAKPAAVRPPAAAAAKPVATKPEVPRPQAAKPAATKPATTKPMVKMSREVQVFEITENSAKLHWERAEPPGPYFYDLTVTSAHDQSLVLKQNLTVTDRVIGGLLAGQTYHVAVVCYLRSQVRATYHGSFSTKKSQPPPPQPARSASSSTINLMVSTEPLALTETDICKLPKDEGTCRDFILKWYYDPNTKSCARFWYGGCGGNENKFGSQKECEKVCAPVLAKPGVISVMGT
Method: An ELISA (Enzyme-linked Immunosorbant Assay) was used to measure binding of zsig37 to complement C1q, and to the following matrix proteins: Bovine Collagen Type I (Becton Dickinson; Lincoln Park, N.J.), laminin, vitronectin, fibronectin, human collagen Types II, III, IV, V, VI (Chemicon International; Temecula, Calif.). BSA V (Sigma Chemical Co.) was used as a negative control. Just prior to use, the proteins were diluted in 2× PBS (Phosphate Buffered Saline, Sigma Chemical Co.) to 100 μg/ml and adjusted to pH 7.2 with 0.1 N NaOH. Each protein sample was plated in quadruplicate (100 μl/well) into a 96 well plate. The plate was allowed to dry overnight in a laminar flow hood and washed three times with 400 μl of 5 mg/ml BSA in 1× PBS and blotted dry. Zsig37 was FITC labeled according to manufacturer's instruction (Pierce; Rockford, Ill.). Into each well was added 100 μl of 1.8 μg/ml zsig37-FITC in 5% BSA, PBS. The plates were incubated for 1.5 hours at room temperature then washed 3 time with 5% BSA, PBS. To each well was then added 100 μl of 1:400 mouse anti-FITC/Biotin (Sigma Chemical Co.). […]
The ELISA assay for binding, described above, was modified to quantitatively evaluate binding. […] The luminescence from the SUPERSIGNAL reagent was read on a Wallac 1420 plate reader (Wallac; Gaithersburg Md.) and the intensity used as a quantitative measure of the zsig37-FITC bound to the ELISA plate.

[3] = tested on: platelet rich thrombus formation induced by vascular injury; test: Platelet rich thrombus formation induced by vascular injury (Folts Model); format: in vivo, cynomolgus monkeys; conditions: remained open
Method: The effect of zsig37 on platelet rich thrombus formation induced by vascular injury (Folts Model) was also tested with cynomolgus monkeys. In the absence of treatment, blood flow in the vessels decreased to zero flow, indicating an occlusion of the artery. In contrast, cynomolgus monkeys that received the vascular injury and were treated with 1.0 mg/kg zsig37 had vessels that were fully patent by 20 minutes following treatment and remained open. When cynomolgus monkeys received the vascular injury and were treated with 0.5 mg/kg zsig37, their vessels were fully patent by 30 minutes following treatment and then remained open.

[4] = tested on: template bleeding time; design: species or system Macaca fascicularis; conditions: cynomolgus monkey, in vivo
Excerpt: In order to evaluate one aspect of the safety of zsig37 and its effect on template bleeding time, a pre-clinical model in Macaca fascicularis was used. Time to cessation of bleeding from standardized incisions on the animal's forearm, a procedure previously described by Wu, et al., Blood, 2002, 99:3623-3628, was employed to assess the effect of zsig37 on bleeding.
Methods. Five female and twelve male, Macaca fascicularis weighing 2.3 to 4.6 kg were used as test subjects on this project. The animals were immobilized with ketamine hydrochloride (Phoenix Scientific) administered intramuscularly at approximately 10 mg/kg. Each animal was examined, and the animal determined to be acceptable for the study. The right forearm, abdomen, ventral neck and inguinal area were shaved free of hair. The animal was transported to the surgical suite (University of Washington Regional Primate Research Center), positioned inside a heated air circulation system and placed onto isoflurane (Abbott Laboratories) inhalation anesthesia delivered through positive pressure ventilation via an endotracheal tube. […] The time to cessation of bleeding was determined and recorded for each animal. Bleeding times were determined for each animal prior to any treatment, after low molecular weight heparin (Lovenox™, Rhone Polenc, Inc.) treatment and after zsig37 treatment.

binding to RAW 264.7 [1]: bound
binding curve to collagen type VI [2]: fits a typical hyperbolic binding curve
B1: zsig37: adipocyte complement related protein homolog, polypeptide of SEQ ID NO:2, inhibits collagen-mediated platelet activation and the complement pathway (protein, listed as Homo sapiens)
chain: MGSRGQGLLLAYCLLLAFASGLVLSRVPHVQGEQQEWEGTEELPSPPDHAERAEEQHEKYRPSQDQGLPASRCLRCCDPGTSMYPATAVPQINITILKGEKGDRGDRGLQGKYGKTGSAGARGHTGPKGQKGSMGAPGERCKSHYAAFSVGRKKPMHSNHYYQTVIFDTEFVNLYDHFNMFTGKFYCYVPGLYFFSLNVHTWNQKETYLHIMKNEEEVVILFAQVGDRSIMQSQSLMLELREQDQVWVRLYKGERENAIFSEELDTYITFSGYLVKHATEP
time to fully patent vessels following treatment ([3]; 0.5 mg/kg): ≤ 30 min
time to fully patent vessels following treatment ([3]; 1.0 mg/kg): ≤ 20 min
template bleeding time vs control (1.0 mg/kg BSA) [4]: not statistically different
